# B1: HA-Halo-MRAP2, Q96G30 1-205 (natural protein)
# chain: MSAQRLISNRTSQQSASNSDYTWEYEYYEIGPVSFEGLKAHKYSIVIGFWVGLAVFVIFMFFVLTLLTKTGAPHQDNAESSEKRFRMNSFVSDFGRPLEPDKVFSRQGNEESRSLFHCYINEVERLDRAKACHQTTALDSDVQLQEAIRSSGQPEEELNRLMKFDIPNFVNTDQNYFGEDDLLISEPPIVLETKPLSQTSHKDLD
# modifications: here or on the partner: CA-Sulfo646 dye on the Halo tag; CA-Sulfo646 dye on the Halo tag
# Molecular target: T1, HA-Halo-MRAP2 (human), Q96G30
# T1 chain: B1 chain
# Assay: single-molecule pull-down (SiMPull) with photobleaching step counting; one colour: HEK293 cells expressing the HA-Halo-tagged protein alone, labelled at the surface with membrane-impermeable CA-Sulfo646, lysed in 0.5% LMNG/0.05% CHS, immobilised by the HA tag on slides with biotinylated HA antibody, single molecules imaged by TIRF
# Settings: remark: other sources report otherwise
binder,measurement,value
B1,percent of molecules with a single bleaching step,68%
same,percent of molecules with three or four bleaching steps,< 5%
same,percent of molecules with two bleaching steps,28%

# From article PMC7618510
